{
  "source": "paper PMC9976466",
  "about": "“Insights into the structure-function relationship of the NorQ/NorD chaperones from Paracoccus denitrificans reveal shared principles of interacting MoxR AAA+/VWA domain proteins” (BMC Biology, 2023)",
  "key": {"NorQ": {"target": "T1, NorQ (Paracoccus denitrificans, UniProt Q51664, E109Q)", "T1 construct": "full length, N-terminal 6-His tag (pET-hQ), expressed in E. coli BL21(DE3); ~30 kDa monomer, several oligomeric states up to hexamer", "assay": "Blue Native PAGE, ATP-induced shift to hexamer", "assay_type": "binding", "conditions": "2 mM ATP, 20 mM MgCl2; Walker B variant, ATPase activity lost"}, "[1]": {"target": "the molecule itself", "assay": "native gel or EMSA; BN-PAGE of purified NorQ^WBD (~10 μg per lane) after addition of ATP"}, "[2]": {"target": "6-His-tagged NorD (Paracoccus denitrificans)", "assay": "native gel or EMSA; BN-PAGE of purified NorQ^WBD (~10 μg per lane) after addition of ATP"}, "[3]": {"target": "the molecule itself", "assay": "native gel or EMSA + SEC; BN-PAGE (NativePAGE 4-16% Bis-Tris, 4 °C) of purified NorQ (14 μg) and NorQ^WB (18 μg), with 2 mM ATP and 20 mM MgCl2 in Fig. 2b; SEC on Superdex 200 in 20 mM TRIS/HCl pH 8, 300 mM NaCl, 10% glycerol"}},
  "note": "Values joined by “and” are separate entries in the source; they are usually repeats but may differ in a detail not shown here. Equal entries are not always repeated.",
  "data": [
    {"molecule": "Nc1ncnc2c1ncn2[C@@H]1O[C@H](COP(=O)(O)OP(=O)(O)OP(=O)(O)O)[C@@H](O)[C@H]1O", "note": "[ATP]", "values": [
      {"measurement": "Blue Native PAGE, ATP-induced shift to hexamer", "setting": "NorQ", "value": "clear shifting of the oligomerization state to the hexamer (Fig. 2b) for the NorQ^WB"}
    ]},
    {"molecule": "untagged NorQ^WB (E109Q), co-expressed with 6-His-tagged NorD (enzyme, Paracoccus denitrificans, UniProt Q51664 1-270, looked up, NorQ of Paracoccus denitrificans, Uniprot Q51663, Walker B variant; the norQ gene was cloned into a pET21a backbone with the T7 RBS; Hexameric within the NorQ^WBD complex (BN-PAGE, cryo-EM); trimer to hexamer after addition of ATP; also called NorQ^WB (in NorQ^WBD; Q^WBD)) MNAHVKTQGNGAVDAPFYLPQGDEVAVFEAAAANDLPVLLKGPTGCGKTRFVAHMAARLGRPLYTVACHDDLSAADLIGRYLLKGGETVWTDGPLTRAVREGAICYLDQVVEARKDVTVVLHPLTDDRRILPIDRTGEEIEAAPGFMLVASYNPGYQNILKTLKPSTRQRFVAMEFDFPEPAREVEIVARESGLDRDRTLGLVRLAGKIRGLKGQDLEEGVSTRLVVYAASLTRRGMNLDRAIEAAMIEPLTDDAEVKRGLRDLAAAIFG", "values": [
      {"measurement": "stoichiometry N", "setting": "[1]", "value": 3},
      {"measurement": "stoichiometry N", "setting": "[2]", "value": 3}
    ]},
    {"molecule": "wildtype 6-His-tagged NorQ (enzyme, Paracoccus denitrificans, UniProt Q51664 1-270, looked up, NorQ, MoxR-class AAA+ ATPase of Paracoccus denitrificans, Uniprot Q51663; the norQ gene was cloned into a pET21a backbone; about 30 kDa; Expressed without NorD; Forms several oligomeric states from monomer to hexamer; source: dialysis) MNAHVKTQGNGAVDAPFYLPQGDEVAVFEAAAANDLPVLLKGPTGCGKTRFVAHMAARLGRPLYTVACHDDLSAADLIGRYLLKGGETVWTDGPLTRAVREGAICYLDEVVEARKDVTVVLHPLTDDRRILPIDRTGEEIEAAPGFMLVASYNPGYQNILKTLKPSTRQRFVAMEFDFPEPAREVEIVARESGLDRDRTLGLVRLAGKIRGLKGQDLEEGVSTRLVVYAASLTRRGMNLDRAIEAAMIEPLTDDAEVKRGLRDLAAAIFG", "values": [
      {"measurement": "stoichiometry N", "setting": "[3]", "value": "6 and 3 and 4 and 5"}
    ]}
  ]
}
